This note sets out measurements from patent US20230272097A1 (PETMEDIX, published 2023).

The target of test [1] is T1, canine OX40L, full length membrane form, expressed on the cell surface (HEK293 or MEF cells stably … (canine (dog, beagle))).
T1 construct: The same protein is used on HEK293 and on MEF cells; also called HEK-OX40L; OX40L expressing HEK293 cells
T1 chain: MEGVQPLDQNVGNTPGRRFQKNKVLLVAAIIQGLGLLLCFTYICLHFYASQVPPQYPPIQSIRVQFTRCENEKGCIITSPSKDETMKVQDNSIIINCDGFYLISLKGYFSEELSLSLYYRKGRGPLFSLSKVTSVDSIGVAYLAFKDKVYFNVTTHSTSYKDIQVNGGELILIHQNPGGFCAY
The experiment in a line: cell binding (flow cytometry on cells expressing OX40L; cell line not given). As to the method:
(§1) Specific binding to cells expressing OX40L is confirmed by purifying mAb from the CHO supernatant using protein A resin (MabSelect, Cytiva). In brief, MabSelect resin is washed in PBS and diluted to have a 10% slurry. An appropriate volume of the 10% slurry is added to the supernatant and incubated 5-10′ at RT before being loaded into a filter column. After 3 washes with PBS the antibodies are eluted using IgG elute buffer (Pierce) directly into neutralisation buffer (10 mM TRIS pH8.0), 8:1 IgG elute: neutralisation buffer ratio. Antibody solutions are quantified measuring absorbance at 280 nm, using a Nanodrop One (Thermo Fisher). Serial 1:3 dilutions of purified antibodies ranging from 6.6 μM to 66 pM are prepared in FACS buffer and are used to stain HEK293 or MEF cells (or any other commonly used cell lines) expressing canine OX40L.
For orientation: A flow cytometer gives signals particle by particle.

Test [2] addresses T2, OX40L ECD-TNCc-HIS protein (trimeric soluble canine OX40L extra cellular domain probe, HIS tagged) (canine; chicken, UniProt P10039 110-139, limits assumed).
T2 construct: domain: trimerization domain; also called HIS tagged trimeric OX40L protein; not shown: HIS tag
T2 sequence: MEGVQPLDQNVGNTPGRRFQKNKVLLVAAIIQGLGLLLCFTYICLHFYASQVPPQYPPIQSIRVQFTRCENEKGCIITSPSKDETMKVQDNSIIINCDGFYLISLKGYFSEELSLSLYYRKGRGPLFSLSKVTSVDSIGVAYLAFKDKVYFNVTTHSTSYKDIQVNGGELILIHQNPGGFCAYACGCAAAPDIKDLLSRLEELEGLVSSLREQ
The experiment in a line: SPR exp 1, Biacore 8K, OX40L ECD-TNCc-HIS amine coupled to CM5 chip, antibody as analyte, Kd at equilibrium. From the text:
(§2) To determine affinity by SPR (Biacore 8K, Cytivia), purified OX40L ECD-TNCc-HIS protein is covalently bound at low density to the surface of a CM5 sensor chip (Cytivia) by amine coupling, using the manufacturer's recommended protocol. Candidate antibodies are subsequently passed across the chip surface at a range of concentrations and affinity determined using the dedicated software (Biacore Insight Evaluation Software).
(SPR reads the build-up and loss of mass on a sensor chip optically.)

In test [3] the target is T2, OX40L ECD-TNCc-HIS protein (trimeric …). Description: SPR exp 2, Biacore 8K, OX40L ECD-TNCc-HIS amine coupled to CM5 chip, antibody as analyte, Kd at equilibrium.
Source text: as §2

For test [4], the target named is T1, canine OX40L, full length membrane …. The experiment in a line: flow cytometry titration on HEK cells expressing OX40L; Kd (EC50) from GeoMean vs concentration, Prism four parameter fit. The procedure:
FIG. 10. Affinity determination for antibodies that bind OX40L on HEK cells expressing OX40L. Graphs are generated by plotting GeoMean arbitrary units (AU) against Log₁₀ [concentration]. Kd (EC₅₀) was calculated using Prism.
as §1

The target is the same in test [5]. The experiment in a line: flow cytometry titration on MEF cells expressing OX40L; Kd (EC50) from GeoMean vs concentration, Prism four parameter fit. As to the method: FIG. 11. Affinity determination for antibodies that bind OX40L on MEF cells expressing OX40L. Graphs are generated by plotting GeoMean arbitrary units (AU) against Log₁₀ [concentration]. Kd (EC₅₀) was calculated using Prism.
as §1

B1: PMX014 (antibody, V domains shown)
VH: EVQLVESGGDLVKPGGSLRLSCVASGFTFSNFHMSWVRQAPGKGLQWVAYINSGGFNINYEDAVRGRFTISRDNAKNTLYLQMNSLRAEDTAIYYCARDWDTHLDTNWFYYWGQGTLVTVSS
VL: SYVLTQLPSKNVTLKQSAHITCRGDNIGSKSVHWYQQKLGQAPVLIIYYDSSRPTGIPERFSGANSGNTATLTISGALAEDEADYYCQVWDISAKASVFGGGTHLTVL
notes: Canine variable regions
Broadly, the Kd is the free concentration of one partner at which half of the binding sites on the other are occupied at equilibrium, for simple one-to-one binding. With B1, the Kd is 74.6 nM in test [1]; 19.7 nM in test [2]; 6.61 nM in test [3]; 5.12 nM in test [4]; 1.11 nM in test [5].

B2: PMX012 (antibody, V domains shown)
VH: EVQLVESGGDLVKPGGSLRLACVTSGFTFSSYHMNWVRQAPGKGLQWVAYINTGGTVTTYADAMNADAVRGRFTISRDNVKNTLYLQMNRLRAEDTAVYYCARGYGVFDYWGQGTLVTVSP
VL: SYVLTQLPSKNVTLKQPAHITCGGDNIGSKSVHWYQQKLGQAPVLIIYYDSRRPTGIPERFSGANSGNTATLTISGALAEDEADYYCQVWDNSDRASWVFGEGTQLTVL
notes: Canine variable regions from Ky9 mice; human kappa or canine kappa/lambda light constant
As to B2, the Kd in test [1] is 37 nM; in test [2], 14.8 nM; in test [3] it was 14.8 nM; in test [4], 3 nM.
